Measured values as given in patent US20110263454A1, “Methods of Identifying Functional Characteristics of Promoters, Transcription Modifying Proteins and Transcription Modulating Agents” (Salk Institute for Biological Studies, priority 2008, published 2011).

Assays:
hPPARg2 promoter = assay: NHR-promoter luciferase screen, hPPARg2 promoter; assay type: cell-based, human; conditions: for Luc. act., normalized to lacZ / Normalized Luc. act., normalized to control: PPARG2 promoter, hormone receptor with or without its ligand; for Normalized Luc. act., normalized to control: relative to control; for Results of assays of transcription factor (+/- ligand) with hPPARg2: Table 6d, luciferase activity relative to control (control = 1.00)
Protocol: (§1) The use, feasibility, and reproducibility of the functional NHR-promoter screen in a 48-well format have been tested validated. Briefly, there were co-expressed 50 ng of each NHR/NHR homodimer or NHR/RXR heterodimer with 100 ng promoter/luciferase construct and 50 ng of LacZ (as a control for transfection efficiency) in CV-1 cells using Fugene HD (Roche) as a transfection reagent (alternatively or additionally, a CMV-YFP construct can be used as a transfection control). Each of the nuclear hormone receptors that were used in these experiments was cloned into a pcDNA3.1 vector and comprised a C-terminally linked V5H6 tag. Twenty-four hours after transfection, appropriate ligands were added, where applicable, (see Table 5 for various ligands and concentrations and after 48 hrs, samples were assayed for luciferase and LacZ activity. To measure for luciferase activity 15 ul of sample was added to 30 ul of luciferase buffer (20 mM tricine, 1.07 mM MgCarbonate, 2.67 mM MgSulfate, 0.1 mM Naz-EDTA, 5 mM DTT, 5 mM ATP, 0.15 mg/ml CoA, 0.5 mM Luciferin), mixed briefly, and run in a Perkin Elmer Victor 5 luminometer. Thus, the functional NHR-promoter screen was used to observe the transcriptional activity of 29 promoters from various physiological pathways including inflammation, lipid and sugar metabolism, cholesterol transport, xenobiotic metabolism, and circadian rhythm.
(§2) The promoters that facilitate transcription of the indicated gene products that were tested using the protocols described herein are listed in the first row of the table. The nuclear hormone receptors and, where applicable, ligands that were assayed for their transcriptional effects on the promoters are listed in the first column of the table. The data represent the luciferase activity of each sample normalized to both the lacZ activity of that sample and to a control, e.g., no NHR or ligand, as customary in the art. As described previously, these normalizations allow the transcriptional activity of each reporter cell to be compared to other samples.
(§3) Tables 7-40 show the transcriptional effects of the hormone receptors, and, where applicable, ligands (orphan receptors are screened without ligand), on each individual promoter. […] The control data of each table are shown in their last rows.

hTNFa promoter = assay: NHR-promoter luciferase screen, hTNFa promoter; assay type: cell-based, human; conditions: for Luc. act., normalized to lacZ / Normalized Luc. act., normalized to control: TNFa promoter, HR component without or with ligand; for hTNFa promoter reporter activity: transcription factor +/- ligand, control = 1.00
Protocol: as §1, §2, §3

mPgc1b promoter = assay: NHR-promoter luciferase screen, mPgc1b promoter; assay type: cell-based, mouse; conditions: for Luc. act., normalized to lacZ / Normalized Luc. act., normalized to control: PGC1b promoter reporter, co-transfected HR, without or with its ligand; for Normalized Luc. act., normalized to control: relative to control; for luciferase activity normalized to lacZ activity and to a control, mPgc1b: mPgc1b promoter-luciferase, CV-1 cells, NHR +/- ligand, control = 1.00
Protocol: Briefly, there were co-expressed 50 ng of each NHR/NHR homodimer or NHR/RXR heterodimer with 100 ng promoter/luciferase construct and 50 ng of LacZ (as a control for transfection efficiency) in CV-1 cells using Fugene HD (Roche) as a transfection reagent (alternatively or additionally, a CMV-YFP construct can be used as a transfection control). Each of the nuclear hormone receptors that were used in these experiments was cloned into a pcDNA3.1 vector and comprised a C-terminally linked V5H6 tag.
as §2, §3

hPOMC promoter = assay: NHR-promoter luciferase screen, hPOMC promoter; assay type: cell-based, human; conditions: for Luc. act., normalized to lacZ / Normalized Luc. act., normalized to control: hPOMC promoter, HR/ligand component; for hPOMC promoter reporter activity: transcription factor +/- ligand, control = 1.00
Protocol: as §1, §2, §3

SREBP1c promoter = assay: NHR-promoter luciferase screen, SREBP1c promoter; assay type: cell-based, mouse; conditions: for Luc. act., normalized to lacZ / Normalized Luc. act., normalized to control: SREBP1c promoter, HR component without or with ligand; for mSREBP1-c promoter reporter activity: transcription factor +/- ligand, control = 1.00
Protocol: as §1, §2, §3

hMDR1 promoter = assay: NHR-promoter luciferase screen, hMDR1 promoter; assay type: cell-based, human; conditions: for Luc. act., normalized to lacZ / Normalized Luc. act., normalized to control: MDR1 promoter, HR/ligand component; for hMDR1 promoter reporter activity: transcription factor +/- ligand, control = 1.00
Protocol: as §1, §2, §3

B1: RORg: RAR-related Orphan Receptor γ (NR1F3), cDNA driver (protein, UniProt P51449 1-518, looked up)
Nuclear receptor ROR-gamma: MDRAPQRQHRASRELLAAKKTHTSQIEVIPCKICGDKSSGIHYGVITCEGCKGFFRRSQRCNAAYSCTRQQNCPIDRTSRNRCQHCRLQKCLALGMSRDAVKFGRMSKKQRDSLHAEVQKQLQQRQQQQQEPVVKTPPAGAQGADTLTYTLGLPDGQLPLGSSPDLPEASACPPGLLKASGSGPSYSNNLAKAGLNGASCHLEYSPERGKAEGRESFYSTGSQLTPDRCGLRFEEHRHPGLGELGQGPDSYGSPSFRSTPEAPYASLTEIEHLVQSVCKSYRETCQLRLEDLLRQRSNIFSREEVTGYQRKSMWEMWERCAHHLTEAIQYVVEFAKRLSGFMELCQNDQIVLLKAGAMEVVLVRMCRAYNADNRTVFFEGKYGGMELFRALGCSELISSIFDFSHSLSALHFSEDEIALYTALVLINAHRPGLQEKRKVEQLQYNLELAFHHHLCKTHRQSILAKLPPKGKLRSLCSQHVERLQIFQHLHPIVVQAAFPPLYKELFSTETESPVGLSK
hPPARg2 promoter
  Luc. act., normalized to lacZ: 19.2
  Normalized Luc. act., normalized to control: 9.6
  Results of assays of transcription factor (+/- ligand) with hPPARg2: 9.59
hTNFa promoter
  Luc. act., normalized to lacZ: 1152.0
  Normalized Luc. act., normalized to control: 1.2
  hTNFa promoter reporter activity: 1.17
mPgc1b promoter
  Luc. act., normalized to lacZ: 15.9
  Normalized Luc. act., normalized to control: 1.3
  luciferase activity normalized to lacZ activity and to a control, mPgc1b: 1.34
hPOMC promoter
  Luc. act., normalized to lacZ: 2.1
  Normalized Luc. act., normalized to control: 0.5
  hPOMC promoter reporter activity: 0.50
SREBP1c promoter
  Luc. act., normalized to lacZ: 644.8
  Normalized Luc. act., normalized to control: 2.0
  mSREBP1-c promoter reporter activity: 2.00
hMDR1 promoter
  Luc. act., normalized to lacZ: 0.2
  Normalized Luc. act., normalized to control: 0.5
  hMDR1 promoter reporter activity: 0.54

B2: RVRa: Rev-Erb α (NR1D1), cDNA driver (protein, UniProt P20393 1-614, looked up)
Nuclear receptor subfamily 1 …: MTTLDSNNNTGGVITYIGSSGSSPSRTSPESLYSDNSNGSFQSLTQGCPTYFPPSPTGSLTQDPARSFGSIPPSLSDDGSPSSSSSSSSSSSSFYNGSPPGSLQVAMEDSSRVSPSKSTSNITKLNGMVLLCKVCGDVASGFHYGVHACEGCKGFFRRSIQQNIQYKRCLKNENCSIVRINRNRCQQCRFKKCLSVGMSRDAVRFGRIPKREKQRMLAEMQSAMNLANNQLSSQCPLETSPTQHPTPGPMGPSPPPAPVPSPLVGFSQFPQQLTPPRSPSPEPTVEDVISQVARAHREIFTYAHDKLGSSPGNFNANHASGSPPATTPHRWENQGCPPAPNDNNTLAAQRHNEALNGLRQAPSSYPPTWPPGPAHHSCHQSNSNGHRLCPTHVYAAPEGKAPANSPRQGNSKNVLLACPMNMYPHGRSGRTVQEIWEDFSMSFTPAVREVVEFAKHIPGFRDLSQHDQVTLLKAGTFEVLMVRFASLFNVKDQTVMFLSRTTYSLQELGAMGMGDLLSAMFDFSEKLNSLALTEEELGLFTAVVLVSADRSGMENSASVEQLQETLLRALRALVLKNRPLETSRFTKLLLKLPDLRTLNNMHSEKLLSFRVDAQ
hPPARg2 promoter
  Luc. act., normalized to lacZ: 1.5
  Normalized Luc. act., normalized to control: 0.8
  Results of assays of transcription factor (+/- ligand) with hPPARg2: 0.76
hTNFa promoter
  Luc. act., normalized to lacZ: 1069.4
  Normalized Luc. act., normalized to control: 1.1
  hTNFa promoter reporter activity: 1.09
mPgc1b promoter
  Luc. act., normalized to lacZ: 8.8
  Normalized Luc. act., normalized to control: 0.7
  luciferase activity normalized to lacZ activity and to a control, mPgc1b: 0.74
hPOMC promoter
  Luc. act., normalized to lacZ: 2.3
  Normalized Luc. act., normalized to control: 0.5
  hPOMC promoter reporter activity: 0.53
SREBP1c promoter
  Luc. act., normalized to lacZ: 574.4
  Normalized Luc. act., normalized to control: 1.8
  mSREBP1-c promoter reporter activity: 1.78
hMDR1 promoter
  Luc. act., normalized to lacZ: 0.2
  Normalized Luc. act., normalized to control: 0.6
  hMDR1 promoter reporter activity: 0.64
